Assays:
[1] = target: T1, recombinant HER3 (Cat. No. 348-RB, R&D Systems) (UniProt P21860 20-643); assay: HRG-HER3 binding ELISA: HRGb1 coated, antibody dilutions premixed with 5 ug/ml recombinant His-tagged HER3, bound HER3 detected with anti-His HRP; blocked ligand HRG
T1 construct: Detected through a His tag; also called labeled recombinant HER3 protein

[2] = target: human HER3 on human cancer cell lines (human, UniProt P21860 20-1342); assay: cell-based or functional assay

Row | IC50 (read off the curve) [1] | potency by IC50 in HRGβ1-induced pHER3 ELISA, MCF-7 cells, against MM and AMG [2] | Binder
1 | ~0.7 µg/mL | – | Clone 16 antibody (CL16), parental IgG1 (antibody, V domains shown, also called Clone 16-PA; parental Clone 16 monoclonal antibody) VH: EVQLLESGGGLVQPGGSLRLSCAASGFTFSYYYMQWVRQAPGKGLEWVSYIGSSGGVTNYADSVKGRFTISRDNSKNTLYLQMNSLRAEDTAVYYCARVGLGDAFDIWGQGTMVTVSS VL: QYELTQPPSASGTPGQRVTMSCSGSSSNIGLNYVSWYQQLPGTAPKLLISRNNQRPSGVPDRFSGSKSGTSASLAISGLRSEDEADYYCAAWDDSLSGEVFGGGTKLTVL
2 | – | ~5 fold | 2C2 monoclonal antibody (IgG1) (antibody, V domains shown) VH: EVQLLESGGGLVQPGGSLRLSCAASGFTFSYYYMQWVRQAPGKGLEWVSYIGSSGGVTNYADSVKGRFTISRDNSKNTLYLQMNSLRAEDTAVYYCARVGLGDAFDIWGQGTMVTVSS VL: QSVLTQPPSASGTPGQRVTISCSGSLSNIGLNYVSWYQQLPGTAPKLLISRNNQRPSGVPDRFSGSKSGTSASLAISGLRSEDEADYYCAAWDDSPPGEAFGGGTKLTVL

Source: patent publication US20190040143A1 (AstraZeneca / MedImmune, published 2019)
